Results taken from US20240392020A1 (JIANGSU HENGRUI PHARMACEUTICALS, published 2024).
Changes are numbered by the printed parent chain.

T1: B7H3 on the recombinant cell line CT26-B7H3 (UniProt Q5ZPR3 29-534, limits assumed)
T1 construct: whole, on cells
T1 sequence (looked up): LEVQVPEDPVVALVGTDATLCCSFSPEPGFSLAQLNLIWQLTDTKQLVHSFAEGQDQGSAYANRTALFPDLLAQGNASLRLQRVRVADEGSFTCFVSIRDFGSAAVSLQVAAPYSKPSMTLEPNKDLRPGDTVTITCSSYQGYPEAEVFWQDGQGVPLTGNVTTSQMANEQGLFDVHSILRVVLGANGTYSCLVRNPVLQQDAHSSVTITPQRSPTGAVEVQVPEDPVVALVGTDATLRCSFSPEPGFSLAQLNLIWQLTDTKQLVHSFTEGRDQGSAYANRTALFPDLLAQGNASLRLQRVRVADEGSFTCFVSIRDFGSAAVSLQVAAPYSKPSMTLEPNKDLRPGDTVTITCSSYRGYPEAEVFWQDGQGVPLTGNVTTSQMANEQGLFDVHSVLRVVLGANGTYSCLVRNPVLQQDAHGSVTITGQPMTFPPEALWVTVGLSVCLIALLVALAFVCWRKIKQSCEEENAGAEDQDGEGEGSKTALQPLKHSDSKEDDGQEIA

B1: H3 (antibody)
heavy: not shown
light: DIQMTQSPSSVSASVGDRVTITCRASQDIANYLSWYQQKPGKSPKLLIYGTSNLEVGVPSRFSGSRSGTDFTLTISSLQPEDFATYYCLQDKEFPRTFGGGTKVEIKSGAPRFLTRPKAFVVSVGKDATLSCQIVGNPTPQVSWEKDQQPVAAGARFRLAQDGDLYRLTILDLALGDSGQYVCRARNAIGEAFAAVGLQVDAEA
B2: R0 (antibody, human IgG1, kappa)
heavy: not shown
light: DIQMTQSPSSLSASVGDRVTITCLASEGISSYLAWYQQKPGKAPKLLIYGANSLQTGVPSRFSGSGSATDYTLTISSLQPEDFATYYCQQSYKFPNTFGQGTKVEVKRTVAAPSVFIFPPSDEQLKSGTASVVCLLNNFYPREAKVQWKVDNALQSGNSQESVTEQDSKDSTYSLSSTLTLSKADYEKHKVYACEVTHQGLSSPVTKSFNRGEC
B3: H2 (antibody)
heavy: not shown
light: DIQMTQSPSSVSASVGDRVTITCRASQDIANYLSWYQQKPGKSPKLLIYGTSNLEVGVPSRFSGSRSGTDFTLTISSLQPEDFATYYCLQDKEFPRTFGGGTKVEIKFDPVYKVKPNPPHNLSVINSEELSSILKLTWTNPSIKSVIILKYNIQYRTKDASTWSQIPPEDTASTRSSFTVQDLKPFTEYVFRIRCMKEDGKGYWSDWSEEASGIT
B4: R6 (antibody)
heavy: not shown
light: DIQMTQSPSSLSASVGDRVTITCLASEGISSYLAWYQQKPGKAPKLLIYGANSLQTGVPSRFSGSGSATDYTLTISSLQPEDFATYYCQQSYKFPNTFGQGTKVEVKQGSPPCFLRFPRPVRVVSGAEAELKCVVLGEPPPVVVWEKGGQQLAASERLSFPADGAEHGLLLTAALPTDAGVYVCRARNAAGEAYAAAAVTVLEPP
B5: R3 (antibody)
heavy: not shown
light: DIQMTQSPSSLSASVGDRVTITCLASEGISSYLAWYQQKPGKAPKLLIYGANSLQTGVPSRFSGSGSATDYTLTISSLQPEDFATYYCQQSYKFPNTFGQGTKVEVKGIPPKIEALPSDISIDEGKVLTVACAFTGEPTPEVTWSCGGRKIHSQEQGRFHIENTDDLTTLIIMDVQKQDGGLYTLSLGNEFGSDSATVNIHIRSI
B6: R4 (antibody)
heavy: not shown
light: B5 light
B7: R1 (antibody)
heavy: not shown
light: DIQMTQSPSSLSASVGDRVTITCLASEGISSYLAWYQQKPGKAPKLLIYGANSLQTGVPSRFSGSGSATDYTLTISSLQPEDFATYYCQQSYKFPNTFGQGTKVEVKGILQPDPPANITVTAVARNPRWLSVTWQDPHSWNSSFYRLRFELRYRAERSKTFTTWMVKDLQHHCVIHDAWSGLRHVVQLRAQEEFGQGEWSEWSPEAMGTPW
B8: R5 (antibody)
heavy: not shown
light: DIQMTQSPSSLSASVGDRVTITCLASEGISSYLAWYQQKPGKAPKLLIYGANSLQTGVPSRFSGSGSATDYTLTISSLQPEDFATYYCQQSYKFPNTFGQGTKVEVKSGAPRFLTRPKAFVVSVGKDATLSCQIVGNPTPQVSWEKDQQPVAAGARFRLAQDGDLYRLTILDLALGDSGQYVCRARNAIGEAFAAVGLQVDAEA
B9: H1 (antibody)
heavy: not shown
light: DIQMTQSPSSVSASVGDRVTITCRASQDIANYLSWYQQKPGKSPKLLIYGTSNLEVGVPSRFSGSRSGTDFTLTISSLQPEDFATYYCLQDKEFPRTFGGGTKVEIKGILQPDPPANITVTAVARNPRWLSVTWQDPHSWNSSFYRLRFELRYRAERSKTFTTWMVKDLQHHCVIHDAWSGLRHVVQLRAQEEFGQGEWSEWSPEAMGTPW
B10: R2 (antibody)
heavy: not shown
light: DIQMTQSPSSLSASVGDRVTITCLASEGISSYLAWYQQKPGKAPKLLIYGANSLQTGVPSRFSGSGSATDYTLTISSLQPEDFATYYCQQSYKFPNTFGQGTKVEVKFDPVYKVKPNPPHNLSVINSEELSSILKLTWTNPSIKSVIILKYNIQYRTKDASTWSQIPPEDTASTRSSFTVQDLKPFTEYVFRIRCMKEDGKGYWSDWSEEASGIT
B11: H0 (antibody, human IgG1, kappa)
heavy: not shown
light: DIQMTQSPSSVSASVGDRVTITCRASQDIANYLSWYQQKPGKSPKLLIYGTSNLEVGVPSRFSGSRSGTDFTLTISSLQPEDFATYYCLQDKEFPRTFGGGTKVEIKRTVAAPSVFIFPPSDEQLKSGTASVVCLLNNFYPREAKVQWKVDNALQSGNSQESVTEQDSKDSTYSLSSTLTLSKADYEKHKVYACEVTHQGLSSPVTKSFNRGEC
B12: V4 (antibody)
heavy: not shown
light: QIVLTQSPAILSASPGEKVTMTCRASSSVSYMNWYQQKPGSSPKPWIYATSNLASGVPARFSVSVSGTSHSLTISRVEAEDAATYYCQQWSSNPLTFGAGTKLELKQGSPPCFLRFPRPVRVVSGAEAELKCVVLGEPPPVVVWEKGGQQLAASERLSFPADGAEHGLLLTAALPTDAGVYVCRARNAAGEAYAAAAVTVLEPP
B13: F3 (antibody)
heavy: not shown
light: DTVVTQEPSFSVSPGGTVTLTCGLSSGSVSTSHYPSWYQQTPGQAPRMLIYNTNTRSSGVPDRFSGSILGNKAALTITGAQADDESDYYCAIHVDRDIWVFGGGTKLTVLSGAPRFLTRPKAFVVSVGKDATLSCQIVGNPTPQVSWEKDQQPVAAGARFRLAQDGDLYRLTILDLALGDSGQYVCRARNAIGEAFAAVGLQVDAEA
B14: V1 (antibody)
heavy: not shown
light: QIVLTQSPAILSASPGEKVTMTCRASSSVSYMNWYQQKPGSSPKPWIYATSNLASGVPARFSVSVSGTSHSLTISRVEAEDAATYYCQQWSSNPLTFGAGTKLELKGILQPDPPANITVTAVARNPRWLSVTWQDPHSWNSSFYRLRFELRYRAERSKTFTTWMVKDLQHHCVIHDAWSGLRHVVQLRAQEEFGQGEWSEWSPEAMGTPW
B15: V3 (antibody)
heavy: not shown
light: QIVLTQSPAILSASPGEKVTMTCRASSSVSYMNWYQQKPGSSPKPWIYATSNLASGVPARFSVSVSGTSHSLTISRVEAEDAATYYCQQWSSNPLTFGAGTKLELKSGAPRFLTRPKAFVVSVGKDATLSCQIVGNPTPQVSWEKDQQPVAAGARFRLAQDGDLYRLTILDLALGDSGQYVCRARNAIGEAFAAVGLQVDAEA
B16: F4 (antibody)
heavy: not shown
light: DTVVTQEPSFSVSPGGTVTLTCGLSSGSVSTSHYPSWYQQTPGQAPRMLIYNTNTRSSGVPDRFSGSILGNKAALTITGAQADDESDYYCAIHVDRDIWVFGGGTKLTVLQGSPPCFLRFPRPVRVVSGAEAELKCVVLGEPPPVVVWEKGGQQLAASERLSFPADGAEHGLLLTAALPTDAGVYVCRARNAAGEAYAAAAVTVLEPP
B17: F8 (antibody)
heavy: not shown
light: B13 light with C135S, C186S, A198C
B18: F6 (antibody)
heavy: not shown
light: B13 light with A113C
B19: F9 (antibody)
heavy: not shown
light: B13 light with A113C, C135S, C186S
B20: F10 (antibody)
heavy: not shown
light: B13 light with R119C, C135S, C186S
B21: F5 (antibody)
heavy: not shown
light: B13 light with A198C
B22: F7 (antibody)
heavy: not shown
light: B13 light with R119C
B23: F11 (antibody)
heavy: not shown
light: B16 light with C116E, V184C
B24: F15 (antibody)
heavy: not shown
light: B16 light with C116E, C136S, C187S, G194C
B25: F13 (antibody)
heavy: not shown
light: B16 light with C116E, A196C
B26: F14 (antibody)
heavy: not shown
light: B16 light with C116E, C136S, V184C, C187S
B27: F12 (antibody)
heavy: not shown
light: B16 light with C116E, G194C

What follows are binders tested against T2, hIL-5 (human, UniProt P05113 20-134) (assay: ELISA).
T2 construct: bought
Description: (§1) For an antibody targeting a soluble protein, the binding activity of the antibody against the soluble protein was detected by ELISA. […] After the blocking was completed, the blocking solution was discarded; and the plate was washed 3 times with a PBST buffer (pH 7.4, PBS containing 0.1% tween-20). 100 μL of the antibody solution diluted in a gradient was added to each well, and the mixture was incubated at 37° C. for 1 h. After the incubation was completed, the plate was washed 3 times with PBST. […] The plate was washed 3 times with PBST. […] The reaction was stopped by adding 50 μL of 1 M H₂SO₄ to each well. The absorbance values at 450 nm were read on a microplate reader, the binding curves of the antibodies to an antigen were fitted with software, and the EC₅₀ values were calculated.

Binder | EC50 [nM]
B1 | 2.75
B2 | 1.75
B3 | 24.4
B4 | 2.02
B5 | 1.58
B6 | 1.67
B7 | 24.4
B8 | 1.59
B9 | 19.4
B10 | 18.4
B11 | 1.74

Target: T2, hIL-5
Test: ELISA
Remark: another data set of the same source
Description: as §1

Binder | EC50 [nM]
B1 | 3.24
B8 | 4.13

The binders below were run against T1, B7H3 on the recombinant cell line … (assay: FACS, CT26-B7H3 cells).

Binder | EC50 [nM]
B12 | 2.9
B13 | 2.83
B14 | 38.4
B15 | 3.6
B16 | 2.17

Target: T1, B7H3 on the recombinant cell line …
Test: FACS, CT26-B7H3 cells
Remark: another data set of the same source

Binder | EC50 [nM]
B17 | 3.14
B18 | 2.71
B19 | 3.52
B20 | 3.94
B21 | 1.21
B13 | 2.64
B22 | 3.38
B23 | 6.15
B24 | 4.44
B25 | 6.08
B16 | 3.01
B26 | 5.15
B27 | 8.19
